Earlier results on one substance are cited in paper PMC6324986.

As a reminder, the Kd is the free concentration of one partner at which half of the binding sites on the other are occupied at equilibrium, for simple one-to-one binding.

The series addresses Bub1 (Homo sapiens) (UniProt O43683).
Sequence of UniProt O43683 (O43683 whole entry): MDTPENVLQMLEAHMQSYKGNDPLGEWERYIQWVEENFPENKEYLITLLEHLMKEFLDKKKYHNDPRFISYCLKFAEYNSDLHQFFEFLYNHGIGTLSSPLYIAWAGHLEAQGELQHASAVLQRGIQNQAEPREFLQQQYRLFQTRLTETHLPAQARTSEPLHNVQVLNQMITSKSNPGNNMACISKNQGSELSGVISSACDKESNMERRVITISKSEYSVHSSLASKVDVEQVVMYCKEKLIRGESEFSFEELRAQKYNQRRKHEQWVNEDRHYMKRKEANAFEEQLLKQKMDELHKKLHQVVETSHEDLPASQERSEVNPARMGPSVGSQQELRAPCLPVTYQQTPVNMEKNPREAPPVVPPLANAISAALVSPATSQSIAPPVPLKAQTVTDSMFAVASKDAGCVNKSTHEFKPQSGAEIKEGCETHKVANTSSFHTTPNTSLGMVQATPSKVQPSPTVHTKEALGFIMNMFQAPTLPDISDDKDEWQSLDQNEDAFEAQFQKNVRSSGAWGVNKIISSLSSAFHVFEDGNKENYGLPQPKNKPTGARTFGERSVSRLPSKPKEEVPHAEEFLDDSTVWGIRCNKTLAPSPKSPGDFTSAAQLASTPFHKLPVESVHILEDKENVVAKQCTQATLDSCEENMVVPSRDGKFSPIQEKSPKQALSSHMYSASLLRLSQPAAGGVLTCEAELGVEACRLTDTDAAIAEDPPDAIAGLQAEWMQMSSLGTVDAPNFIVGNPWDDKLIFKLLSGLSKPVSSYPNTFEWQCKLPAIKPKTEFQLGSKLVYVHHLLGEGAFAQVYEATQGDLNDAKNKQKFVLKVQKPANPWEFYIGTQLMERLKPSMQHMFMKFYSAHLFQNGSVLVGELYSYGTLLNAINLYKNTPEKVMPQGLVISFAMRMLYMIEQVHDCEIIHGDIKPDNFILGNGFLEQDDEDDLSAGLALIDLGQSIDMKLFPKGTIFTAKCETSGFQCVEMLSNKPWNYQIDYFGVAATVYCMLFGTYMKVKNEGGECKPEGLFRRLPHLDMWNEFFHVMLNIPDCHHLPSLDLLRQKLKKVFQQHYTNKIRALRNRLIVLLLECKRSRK

For Mad1 (from UniProt Q9Y6D9), the Kd was above 3 µM.
